Assay results from ChEMBL document CHEMBL2074257, “Expression cloning of a Na+-independent aromatic amino acid transporter with structural similarity to H+/monocarboxylate transporters” (J Biol Chem, 2001).

Assays:
[1] = target: T1, Monocarboxylate transporter 10 (Rattus norvegicus, UniProt Q91Y77); assay: TP_TRANSPORTER: inhibition of L-tryptophan uptake in Xenopus laevis oocytes; format: functional, cell-based, Oocyte
T1 sequence (Q91Y77 whole entry): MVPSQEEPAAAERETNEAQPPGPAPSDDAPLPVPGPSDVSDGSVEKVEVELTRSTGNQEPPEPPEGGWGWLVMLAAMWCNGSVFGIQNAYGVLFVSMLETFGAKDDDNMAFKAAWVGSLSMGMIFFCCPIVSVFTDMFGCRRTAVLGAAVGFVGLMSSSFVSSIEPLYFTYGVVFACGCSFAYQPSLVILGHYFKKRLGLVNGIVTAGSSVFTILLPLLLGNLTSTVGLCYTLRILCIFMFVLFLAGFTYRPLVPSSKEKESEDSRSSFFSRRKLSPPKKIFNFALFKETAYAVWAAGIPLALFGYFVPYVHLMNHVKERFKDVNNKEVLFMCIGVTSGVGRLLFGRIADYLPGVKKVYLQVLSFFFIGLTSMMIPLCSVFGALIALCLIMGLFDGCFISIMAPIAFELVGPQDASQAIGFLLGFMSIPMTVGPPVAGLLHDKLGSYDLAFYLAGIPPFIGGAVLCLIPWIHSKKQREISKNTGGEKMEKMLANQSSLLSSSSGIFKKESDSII

[2] = substrate: N[C@@H](Cc1c[nH]c2ccccc12)C(=O)O; conditions: Xenopus laevis; Oocyte
[3] = substrate: N[C@@H](Cc1ccc(O)c(O)c1)C(=O)O; conditions: Xenopus laevis; Oocyte
[4] = substrate: N[C@@H](Cc1ccc(O)cc1)C(=O)O; conditions: Xenopus laevis; Oocyte
[5] = substrate: N[C@@H](Cc1ccccc1)C(=O)O; conditions: Xenopus laevis; Oocyte

Molecule	Ki [1] [mM]	Km [2] [mM]	Km [3] [mM]	Km [4] [µM]	Km [5] [mM]
CC(=O)N[C@@H](Cc1c[nH]c2ccccc12)C(=O)O [ACETYLTRYPTOPHAN]	1.5				
CN[C@@H](Cc1c[nH]c2ccccc12)C(=O)O [ABRINE]	3.1				
Monocarboxylate transporter 10 (Rattus norvegicus), Q91Y77 (protein) MVPSQEEPAAAERETNEAQPPGPAPSDDAPLPVPGPSDVSDGSVEKVEVELTRSTGNQEPPEPPEGGWGWLVMLAAMWCNGSVFGIQNAYGVLFVSMLETFGAKDDDNMAFKAAWVGSLSMGMIFFCCPIVSVFTDMFGCRRTAVLGAAVGFVGLMSSSFVSSIEPLYFTYGVVFACGCSFAYQPSLVILGHYFKKRLGLVNGIVTAGSSVFTILLPLLLGNLTSTVGLCYTLRILCIFMFVLFLAGFTYRPLVPSSKEKESEDSRSSFFSRRKLSPPKKIFNFALFKETAYAVWAAGIPLALFGYFVPYVHLMNHVKERFKDVNNKEVLFMCIGVTSGVGRLLFGRIADYLPGVKKVYLQVLSFFFIGLTSMMIPLCSVFGALIALCLIMGLFDGCFISIMAPIAFELVGPQDASQAIGFLLGFMSIPMTVGPPVAGLLHDKLGSYDLAFYLAGIPPFIGGAVLCLIPWIHSKKQREISKNTGGEKMEKMLANQSSLLSSSSGIFKKESDSII		3.72	6.43	2590	7.02
